Results as given in the supplement of paper PMC10567573.

B1: ATL3 (parent)
chain: FSFRYQQELEEEIKELYENFCKHN
B2: ACBD3 (parent)
chain: YVASHKIEKEEQEKKRKEEEERRR

Variants of: B1
Experiment: protein stability index of a GFP-peptide fusion (GPS, HEK-293T) (PSI 1-6); higher = more stable
Conditions: c terminus: a fixed tail appended
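Further: lentivirally expressed fusions sorted by FACS into six bins by GFP to DsRed ratio, PSI derived from sequencing read proportions per bin multiplied by bin number.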

Protein stability index of substitutions, site by site:
S2: A 2.51, R 2.62, F 1.75, H 2.29, M 1.52, Q 2.6, W 1.8, K 2.58, L 1.85, C 3.27, T 2.36, V 1.65, P 2.63, N 2.37, G 2.53, Y 2.73, I 1.7, E 2.52, D 2.93
F3: M 2.96, W 2.82, G 3.15, P 3.79, D 3.14, V 2.51, H 3.23, I 2.52, E 3.04, Y 2.01, L 2.7, T 3.23, A 2.93, S 2.79, N 2.85, Q 4.39, C 2.59, K 2.09, R 2.83
Y5: R 3.56, E 3.07, H 2.84, I 2.77, L 2.13, M 3.4, K 2.93, F 2.5, D 3.55, C 2.44, S 3.35, V 1.93, Q 2.63, N 3.29, A 3.51, T 3.09, P 3.45
R4: C 2.23, K 2.33, Y 2.11, T 2.02, V 2.36, H 2.9, D 3.13, A 2.05, F 2.45, S 2.1, G 2.88, L 2.09, N 2.96, E 2.63, M 1.96, P 2.87, I 1.87, W 1.61, Q 2.82
F1: H 3.35, I 2.46, L 3.32, N 3.74, E 4.04, K 3.01, W 1.95, T 3.87, Q 3.11, A 2.78, G 3.93, V 2.54, R 1.95, P 3.43, Y 2.33, M 2.03, S 3.89, C 3.11, D 3.8

Variants of: B2
Experiment: as above
Conditions: c terminus: a fixed tail appended

Protein stability index of substitutions, site by site:
E18: A 3.07, S 2.22, L 2.16, V 1.95, Q 2.43, N 1.85, M 2.46, I 2.42, T 2.41, C 2.12, W 3.53, H 1.6, P 2.25, R 2.26, Y 1.94, D 2.38, K 2.05
R23: P 2.46, L 2.7, Q 2.71, K 2.74, S 2.47, N 2.74, Y 2.64, T 3.43, V 2.65, A 2.85, E 3.35, H 2.29, G 3.03, C 2.44, I 2.65, F 2.82, M 2.24, W 2.02, D 3.16
K14: P 2.49, T 2.44, I 3.21, S 2.74, M 2.62, H 2.22, D 3.27, V 3.09, Q 2.95, W 2.69, C 2.67, G 2.79, N 2.99, L 3, Y 2.27
E19: V 2.59, S 2.54, R 2.25, Y 2.38, N 1.94, L 2.39, M 1.98, D 2.74, H 2.44, K 2.48, P 1.81, I 3.02, Q 2.61, A 2.6, F 2.68, G 2.03, C 2.53, W 2.19, T 2.57
E13: K 1.73, L 2.27, M 2.04, N 2.52, W 2.81, F 2.39, V 2.93, Q 2, S 3.36, H 2.25, D 2.9, G 2.15, Y 2.41, P 2.02, T 2.33, C 2.66, I 2.22
R22: F 2.5, N 3.14, W 2.28, I 3.59, Q 3.11, C 2.69, A 2.45, V 2.89, L 1.89, S 2.99, H 2.42, T 3.28, P 2.72, K 2.69, Y 2.87, M 2.76, D 3.24, G 2.68, E 3.02
E21: C 2.21, Q 2.37, W 2.67, N 2.07, F 2.45, P 2.35, I 2.57, G 2.03, A 1.54, V 3.05, R 2.04, K 2.35, H 3.13, M 2.04, D 2.25, S 2.52, T 2.38, Y 2.15, L 2.28
K15: L 2.2, W 3.36, R 2.69, P 2.4, V 2.74, N 2.62, Q 3.15, M 2.6, Y 2.16, D 2.73, I 2.39, A 3.27, H 3.06, S 2.79, E 3.07, F 2.06, G 2.71, C 2.09
R24: H 3.01, L 2.75, G 2.54, K 2.65, V 3.46, C 2.83, I 2.52, D 3.35, T 2.27, N 3.67, W 2.63, F 2.85, E 2.19, M 2.65, A 2.94, P 2.04, Q 3.12, S 2.7, Y 2.42
Q12: S 1.82, R 2.26, W 1.93, F 1.96, N 2.18, E 3.63, G 2.88, V 2.02, D 3.76, Y 2.67, T 2.52, K 2.12, C 2.92, I 3.33, P 2.31, L 2.78, A 3.33, H 2.27
E20: M 2.48, G 1.96, R 1.91, Y 1.58, A 2.81, H 2.39, K 2.83, S 2.62, L 1.71, N 2.56, Q 2.36, F 2.5, D 2.63, T 2.57, P 1.98, I 2.58, C 3.17, V 1.82
R16: G 2.88, T 3.41, Q 2.94, W 2.27, E 3.75, F 2.34, C 2.67, K 2.92, D 2.76, V 2.24, M 3.23, H 2.4, A 3.02, I 2.69, Y 2.74, L 3, S 2.65, N 2.63, P 2.6
E11: T 4.28, V 1.98, W 2.67, S 2.57, Y 2.37
K17: H 2.74, T 2.35, C 2.41, N 2.99, F 2.32, Q 2.07, L 3.14, V 2.9, Y 2.06, P 3.01, D 2.77, I 2.35, A 2.88, E 2.93, G 3.79, S 3.09, R 3.32, W 1.84, M 2.45
